Holding throughout (test): activation reporter or marker
Test [1] concerns the target T1, mH-Y (MiHA-Y) peptide on H-2Db (mouse).
T1 peptide: KCSRNRQYL

The target in test [2] is T2, HA-1(R), allelic variant of HA-1; Rho GTPase activating protein 45 (HMHA1) peptide on HLA-A*02:01 (human).
T2 peptide: VLRDDLLEA

In test [3] the target is T3, HA-1(H), minor histocompatibility antigen HA-1 variant H; Rho GTPase activating protein 45 (HMHA1) peptide on … (human).
T3 peptide: VLHDDLLEA

The values that follow come from patent US20240173352A1 (published 2024).

B1: H-Y TCRalpha P2A TCRbeta Jb2.3L (TCR, V domains shown)
Valpha: AQSVDQPDAHVTLSEGASLELRCSYSYSAAPYLFWYVQYPGQSLQFLLKYITGDTVVKGTKGFEAEFRKSNSSFNLKKSPAHWSDSAKYFCALEGQDQGGSAKLIFGEGTKLTVSS
Vbeta: EAAVTQSPRNKVAVTGGKVTLSCNQTNNHNNMYWYRQDTGHGLRLIHYSYGAGSTEKGDIPDGYKASRPSQENFSLILELATPSQTSVYFCASGDNSAETLYFGPGTRLLVL
Turning to B1, the binding result in test [1] is “recognises”.

B2: KP7 HA-1H TCR (TCR, V domains shown)
Valpha: KNEVEQSPQNLTAQEGEFITINCSYSVGISALHWLQQHPGGGIVSLFMLSSGKKKHGRLIATINIQEKHSSLHITASHPRDSAVYICAVRSVSGAGSYQLTFGKGTKLSVIP
Vbeta: DTGVSQNPRHKITKRGQNVTFRCDPISEHNRLYWYRQTLGQGPEFLTYFQNEAQLEKSRLLSDRFSAERPKGSFSTLEIQRTEQGDSAMYLCASSIDSFNEQFFGPGTRLTVL
In the case of B2, the binding result is recorded as “no recognition” in test [2] and “recognises” in test [3].
